The test system of data set [1] is HeLa Kyoto. Put plainly: solubility in G1/S (NP-40 vs SDS abundance) (log2 ratio); higher = more soluble. Conditions: cell cycle stage: G1/S.
Data set [2] concerns HeLa Kyoto. Put plainly: melting temperature (median over replicates), in situ; higher = more thermally stable.
For data set [3], the system named is HeLa Kyoto. Put plainly: solubility change mitosis vs G1/S (difference of NP-40 vs SDS log2 ratios) (log2 ratio difference); higher = more soluble in mitosis.
Data set [4] has as its system HeLa Kyoto. Put plainly: thermal stability score vs G1/S (z-score of summed log2 fold changes over temperatures); higher = more thermally stable than in G1/S.
The mark [5] stands for this setting: cell cycle stage: early G1 (4.5 h after nocodazole release).

Results on 5 sequences are retold here after the supplement of paper PMC5998384.
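Throughout, for melting temperature (median over replicates), in situ: HeLa Kyoto cells synchronized by double thymidine or nocodazole block, proteins quantified by TMT10plex mass spectrometry, three independent biological replicates.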
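Throughout, for solubility change mitosis vs G1/S (difference of NP-40 vs SDS log2 ratios): synchronized HeLa Kyoto cells (double thymidine block for G1/S, nocodazole release for mitosis), protein amounts in NP-40 versus SDS lysates quantified by mass spectrometry, three biological replicates.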
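Throughout, for solubility in G1/S (NP-40 vs SDS abundance): HeLa Kyoto cells arrested at G1/S by double thymidine block, proteins quantified by TMT10plex mass spectrometry in mild NP-40 versus SDS extracts, three biological replicates.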
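Throughout, for thermal stability score vs G1/S (z-score of summed log2 fold changes over temperatures): synchronized HeLa Kyoto cells, proteins quantified by TMT10plex mass spectrometry, three biological replicates, mitosis taken 0.5 h after nocodazole release, G1/S directly after double thymidine block.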

As for “MVLNSLDKMIQLQKNTANIRNICVLAHVDHGKTTLADCLISSNGIISSRLAGKLRYMDSREDEQIRGITMKSSAISLHYATGNEEYLINLIDSPGHVDFSSEVSTAVRICDGCIIVVDAVEGVCPQTQAVLRQAWLENIRPVLVINKIDRLIVELKFTPQEAYSHLKNILEQINALTGTLFTSKVLEERAERETESQVNPNSEQGEQVYDWSTGLEDTDDSHLYFSPEQGNVVFTSAIDGWGFGIEHFARIYSQKIGIKKEVLMKTLWGDYYINMKAKKIMKGDQAKGKKPLFVQLILENIWSLYDAVLKKDKDKIDKIVTSLGLKIGAREARHSDPKVQINAICSQWLPISHAVLAMVCQKLPSPLDITAERVERLMCTGSQTFDSFPPETQALKAAFMKCGSEDTAPVIIFVSKMFAVDAKALPQNKPRPLTQEEIAQRRERARQRHAEKLAAAQGQAPLEPTQDGSAIETCPKGEEPRGDEQQVESMTPKPVLQEENNQESFIAFARVFSGVARRGKKIFVLGPKYSPLEFLRRVPLGFSAPPDGLPQVPHMAYCALENLYLLMGRELEYLEEVPPGNVLGIGGLQDFVLKSATLCSLPSCPPFIPLNFEATPIVRVAVEPKHPSEMPQLVKGMKLLNQADPCVQILIQETGEHVLVTAGEVHLQRCLDDLKERFAKIHISVSEPIIPFRETITKPPKVDMVNEEIGKQQKVAVIHQMKEDQSKIPEGIQVDSDGLITITTPNKLATLSVRAMPLPEEVTQILEENSDLIRSMEQLTSSLNEGENTHMIHQKTQEKIWEFKGKLEQHLTGRRWRNIVDQIWSFGPRKCGPNILVNKSEDFQNSVWTGPADKASKEASRYRDLGNSIVSGFQLATLSGPMCEEPLMGVCFVLEKWDLSKFEEQGASDLAKEGQEENETCSGGNENQELQDGCSEAFEKRTSQKGESPLTDCYGPFSGQLIATMKEACRYALQVKPQRLMAAMYTCDIMATGDVLGRVYAVLSKREGRVLQEEMKEGTDMFIIKAVLPVAESFGFADEIRKRTSGLASPQLVFSHWEIIPSDPFWVPTTEEEYLHFGEKADSENQARKYMNAVRKRKGLYVEEKIVEHAEKQRTLSKNK [EFTUD1]”, in data set [1], the “solubility in G1/S (log2)” value is -0.156. For the same sequence, the melting temperature in data set [2] (cell cycle stage: G1/S) was determined as 50.3 °C; in data set [2] (cell cycle stage: mitosis), 50 °C. Further, in data set [3], the “solubility change mitosis (log2)” value is -0.154. Besides, the thermal stability score in data set [4] (setting [5]) is 0.0185; in data set [4] (cell cycle stage: mitosis), -0.212.

Take “MVLTLGESWPVLVGRRFLSLSAADGSDGSHDSWDVERVAEWPWLSGTIRAVSHTDVTKKDLKVCVEFDGESWRKRRWIEVYSLLRRAFLVEHNLVLAERKSPEISERIVQWPAITYKPLLDKAGLGSITSVRFLGDQQRVFLSKDLLKPIQDVNSLRLSLTDNQIVSKEFQALIVKHLDESHLLKGDKNLVGSEVKIYSLDPSTQWFSATVINGNPASKTLQVNCEEIPALKIVDPSLIHVEVVHDNLVTCGNSARIGAVKRKSSENNGTLVSKQAKSCSEASPSMCPVQSVPTTVFKEILLGCTAATPPSKDPRQQSTPQAANSPPNLGAKIPQGCHKQSLPEEISSCLNTKSEALRTKPDVCKAGLLSKSSQIGTGDLKILTEPKGSCTQPKTNTDQENRLESVPQALTGLPKECLPTKASSKAELEIANPPELQKHLEHAPSPSDVSNAPEVKAGVNSDSPNNCSGKKVEPSALACRSQNLKESSVKVDNESCCSRSNNKIQNAPSRKSVLTDPAKLKKLQQSGEAFVQDDSCVNIVAQLPKCRECRLDSLRKDKEQQKDSPVFCRFFHFRRLQFNKHGVLRVEGFLTPNKYDNEAIGLWLPLTKNVVGIDLDTAKYILANIGDHFCQMVISEKEAMSTIEPHRQVAWKRAVKGVREMCDVCDTTIFNLHWVCPRCGFGVCVDCYRMKRKNCQQGAAYKTFSWLKCVKSQIHEPENLMPTQIIPGKALYDVGDIVHSVRAKWGIKANCPCSNRQFKLFSKPASKEDLKQTSLAGEKPTLGAVLQQNPSVLEPAAVGGEAASKPAGSMKPACPASTSPLNWLADLTSGNVNKENKEKQPTMPILKNEIKCLPPLPPLSKSSTVLHTFNSTILTPVSNNNSGFLRNLLNSSTGKTENGLKNTPKILDDIFASLVQNKTTSDLSKRPQGLTIKPSILGFDTPHYWLCDNRLLCLQDPNNKSNWNVFRECWKQGQPVMVSGVHHKLNSELWKPESFRKEFGEQEVDLVNCRTNEIITGATVGDFWDGFEDVPNRLKNEKEPMVLKLKDWPPGEDFRDMMPSRFDDLMANIPLPEYTRRDGKLNLASRLPNYFVRPDLGPKMYNAYGLITPEDRKYGTTNLHLDVSDAANVMVYVGIPKGQCEQEEEVLKTIQDGDSDELTIKRFIEGKEKPGALWHIYAAKDTEKIREFLKKVSEEQGQENPADHDPIHDQSWYLDRSLRKRLHQEYGVQGWAIVQFLGDVVFIPAGAPHQVHNLYSCIKVAEDFVSPEHVKHCFWLTQEFRYLSQTHTNHEDKLQVKNVIYHAVKDAVAMLKASESSFGKP [KDM3A]”: in data set [1], the “solubility in G1/S (log2)” value stood at 0.0198. Also, the melting temperature worked out at 48.6 °C in data set [2] (cell cycle stage: G1/S) and 50.4 °C in data set [2] (cell cycle stage: mitosis). In addition, in data set [3], the “solubility change mitosis (log2)” value was -0.158. The values for the thermal stability score in data set [4] (setting [5]) and in data set [4] (cell cycle stage: mitosis) were -0.474 and 0.304, respectively.

As to “MVPLVAVVSGPRAQLFACLLRLGTQQVGPLQLHTGASHAARNHYEVLVLGGGSGGITMAARMKRKVGAENVAIVEPSERHFYQPIWTLVGAGAKQLSSSGRPTASVIPSGVEWIKARVTELNPDKNCIHTDDDEKISYRYLIIALGIQLDYEKIKGLPEGFAHPKIGSNYSVKTVEKTWKALQDFKEGNAIFTFPNTPVKCAGAPQKIMYLSEAYFRKTGKRSKANIIFNTSLGAIFGVKKYADALQEIIQERNLTVNYKKNLIEVRADKQEAVFENLDKPGETQVISYEMLHVTPPMSPPDVLKTSPVADAAGWVDVDKETLQHRRYPNVFGIGDCTNLPTSKTAAAVAAQSGILDRTISVIMKNQTPTKKYDGYTSCPLVTGYNRVILAEFDYKAEPLETFPFDQSKERLSMYLMKADLMPFLYWNMMLRGYWGGPAFLRKLFHLGMS [SQRDL]”, the “solubility in G1/S (log2)” value in data set [1] came out at 0.148. Further, the melting temperature in data set [2] (cell cycle stage: G1/S) and in data set [2] (cell cycle stage: mitosis) was 54.3 °C throughout. In addition, the “solubility change mitosis (log2)” value in data set [3] was -0.0579. Also, the thermal stability score in data set [4] (setting [5]) is 0.51; in data set [4] (cell cycle stage: mitosis) it was -4.29.

Turning to “MVPRLLLRAWPRGPAVGPGAPSRPLSAGSGPGQYLQRSIVPTMHYQDSLPRLPIPKLEDTIRRYLSAQKPLLNDGQFRKTEQFCKSFENGIGKELHEQLVALDKQNKHTSYISGPWFDMYLSARDSVVLNFNPFMAFNPDPKSEYNDQLTRATNMTVSAIRFLKTLRAGLLEPEVFHLNPAKSDTITFKRLIRFVPSSLSWYGAYLVNAYPLDMSQYFRLFNSTRLPKPSRDELFTDDKARHLLVLRKGNFYIFDVLDQDGNIVSPSEIQAHLKYILSDSSPAPEFPLAYLTSENRDIWAELRQKLMSSGNEESLRKVDSAVFCLCLDDFPIKDLVHLSHNMLHGDGTNRWFDKSFNLIIAKDGSTAVHFEHSWGDGVAVLRFFNEVFKDSTQTPAVTPQSQPATTDSTVTVQKLNFELTDALKTGITAAKEKFDATMKTLTIDCVQFQRGGKEFLKKQKLSPDAVAQLAFQMAFLRQYGQTVATYESCSTAAFKHGRTETIRPASVYTKRCSEAFVREPSRHSAGELQQMMVECSKYHGQLTKEAAMGQGFDRHLFALRHLAAAKGIILPELYLDPAYGQINHNVLSTSTLSSPAVNLGGFAPVVSDGFGVGYAVHDNWIGCNVSSYPGRNAREFLQCVEKALEDMFDALEGKSIKS [CPT2]”, the “solubility in G1/S (log2)” value in data set [1] came to 0.115. For the same sequence, the melting temperature in data set [2] (cell cycle stage: G1/S) and in data set [2] (cell cycle stage: mitosis) was 50 °C throughout. Besides, the “solubility change mitosis (log2)” value in data set [3] was -0.135. Moreover, the values for the thermal stability score in data set [4] (setting [5]) and in data set [4] (cell cycle stage: mitosis) were -0.368 and 0.841, respectively.

For “MVPSRRTWNLGATPSLRGLWRVGRAPEPEPGMARPAPAPASPAARPFPHTGPGRLRTGRGKDTPVCGDEDSSARSAARPALAQCRALSVDWAGPGSPHGLYLTLQVEHLKEKLISQAQEVSRLRSELGGTDLEKHRDLLMVENERLRQEMRRCEAELQELRTKPAGPCPGCEHSQESAQLRDKLSQLQLEMAESKGMLSELNLEVQQKTDRLAEVELRLKDCLAEKAQEEERLSRRLRDSHETIASLRAQSPPVKYVIKTVEVESSKTKQALSESQARNQHLQEQVAMQRQVLKEMEQQLQSSHQLTARLRAQIAMYESELERAHGQMLEEMQSLEEDKNRAIEEAFARAQVEMKAVHENLAGVRTNLLTLQPALRTLTNDYNGLKRQVRGFPLLLQEALRSVKAEIGQAIEEVNSNNQELLRKYRRELQLRKKCHNELVRLKGNIRVIARVRPVTKEDGEGPEATNAVTFDADDDSIIHLLHKGKPVSFELDKVFSPQASQQDVFQEVQALVTSCIDGFNVCIFAYGQTGAGKTYTMEGTAENPGINQRALQLLFSEVQEKASDWEYTITVSAAEIYNEVLRDLLGKEPQEKLEIRLCPDGSGQLYVPGLTEFQVQSVDDINKVFEFGHTNRTTEFTNLNEHSSRSHALLIVTVRGVDCSTGLRTTGKLNLVDLAGSERVGKSGAEGSRLREAQHINKSLSALGDVIAALRSRQGHVPFRNSKLTYLLQDSLSGDSKTLMVVQVSPVEKNTSETLYSLKFAERVRSVELGPGLRRAELGSWSSQEHLEWEPACQTPQPSARAHSAPSSGTSSRPGSIRRKLQPSGKSRPLPV [KIFC3]”, the “solubility in G1/S (log2)” value in data set [1] is -0.0691. Further, the figures for the melting temperature in data set [2] (cell cycle stage: G1/S) and in data set [2] (cell cycle stage: mitosis) were 49.1 °C and 47.3 °C, respectively. The “solubility change mitosis (log2)” value in data set [3] worked out at 0.169. In addition, the figures for the thermal stability score in data set [4] (setting [5]) and in data set [4] (cell cycle stage: mitosis) were 0.116 and 0.946, respectively.
